The source of these data is patent US20200264182A1 (J OIL MILLS, published 2020).

First the molecules themselves.
T1: Aleuria aurantia lectin (AAL), biotin-labeled (Aleuria aurantia, UniProt P18891 2-313, biotin label (sites not given))
T1 construct: Bought reagent, used as the comparative lectin
T1 sequence (looked up): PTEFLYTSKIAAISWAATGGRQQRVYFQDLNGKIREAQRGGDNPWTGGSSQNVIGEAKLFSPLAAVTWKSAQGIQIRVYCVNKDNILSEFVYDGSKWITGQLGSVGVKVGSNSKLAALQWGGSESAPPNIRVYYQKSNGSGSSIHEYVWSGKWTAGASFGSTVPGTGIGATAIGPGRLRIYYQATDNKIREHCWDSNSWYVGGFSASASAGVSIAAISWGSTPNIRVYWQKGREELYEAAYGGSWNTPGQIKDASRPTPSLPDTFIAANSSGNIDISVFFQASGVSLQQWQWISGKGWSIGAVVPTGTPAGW

B1: Pholiota squarrosa lectin (PhoSL), biotin-labeled (other)
chain: APVPVTKLVCDGDTYKCTAYLDFGDGRWVAQWDTNVFHTG
modifications: cysteine pairing not given here; also: biotin label, site not given here
notes: Lectin; also called biotin-labeled PhoSL; fucose α1→6 specific lectin
B2: fucosylated PSA (prostate specific antigen) (enzyme)
chain: not shown
modifications: N-linked sugar chain with α1→6 fucose (site not stated)
notes: also called serum fucosylated PSA

For experiment [1], the target named is B2. Kind of experiment: sandwich ELISA on serum, biotin-labeled PhoSL peptide, pH 9.6.
Experiment [2] concerns the target B2. Put plainly: sandwich ELISA: PSA captured on anti-PSA antibody, biotin-lectin detected with HRP-streptavidin. In general terms: ELISA stands for enzyme-linked immunosorbent assay.
Experiment [3] addresses T1, Aleuria aurantia lectin (AAL), …. Kind of experiment: sandwich ELISA on serum, biotin-labeled AAL, pH 7.4.

Where no end group is shown, it is not given here.

Regarding KPVPVTKLVCDGDTYKCTAKLDFGDGRWVAQWDTNVFHK (cysteine pairing not given here; also: biotin label, sites not given here) [Pholiota squarrosa lectin peptide (PhoSL peptide), biotin-labeled], the binding result in experiment [1] is on record as “binds”.
Turning to B1, the binding result in experiment [2] is given as “binds”.
B2: in experiment [3], the binding result is on record as “binds”.
